{"source": "the supplement of paper PMC9170038"}
{"tested_on": "MS2 coat protein", "assay": "apparent KD of MS2 coat protein, switch ON state; designed switch direction (-1 OFF switch, 1 ON switch): -1; higher = weaker reporter binding", "conditions": "FMN input: 0 or 200 uM; Eterna round: R93 (includes R88 designs)", "method_in_brief": "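Apparent KD is reported per design as the median of normalised binding-curve fits across its clusters. The RNA switches were made by on-chip transcription from Illumina sequencing clusters. SNAP-549-labelled MS2 coat protein was then added in twofold steps (0.7 or 1.5 nM to 3 µM; 0.8–1.5 h to 10–20 min per step) in 100 mM Tris-HCl pH 7.5, 80 mM KCl, 4 mM MgCl2, without or with constant ligand.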", "units": {"apparent KD of MS2 coat protein": "nM"}}
{"sequence": "AAAAAGUCAGGAUAUUCGGAUAGGAAAACGAAAACCUAUCCGAAGAAGGGACAUGAGGAUCACCCAUGUGGAAA [67% Ecls-II - Late G segment 1]", "apparent KD of MS2 coat protein": 88.7}
{"sequence": "AGCUAGUCAGGAUAUACGAGAAAGAAAGAAGAAGUGAAGGGACAUGAGGAUCACCCAUGUAGAAGGGACUAGCA [Diamond 27]", "apparent KD of MS2 coat protein": 51.9}
{"sequence": "AAGAACACAGGAUAUACAUGAAAGAAAGAAAAGAAAAGAAAACAUGAGGAUCACCCAUGUAGAAGGGUGUAGAA [EteRNA is fun!]", "apparent KD of MS2 coat protein": 454}
{"sequence": "UGCAGGUGAGGAUAUGCGGGCGAGCUAACAUAAGCAUCGAAGCAGAAGGCACAUGAGGAUCACCCAUGUAGUCC [Ex4_Neo]", "apparent KD of MS2 coat protein": 21}
{"sequence": "AACAGUACAGGAUAUACAUGAGGAUCACCCAUGUCACACAAAUAAAACAAAAAUAAAAGUAGAAGGGUACUGGA [Ruby 40]", "apparent KD of MS2 coat protein": 24.9}
{"sequence": "AGAAAACAUGAGGAUCACCCAUGUGAGGAUAUCGAUGUCCAAAAAAAAGUGCGGGACUCGAGAAGGCACUUGGA [Erbelaed]", "apparent KD of MS2 coat protein": 46.6}
{"sequence": "AGUAGAUCAGGAUAUACAUAAAUGAUAAUUAUGUAAUUUCUACAUGAGGAUCACCCAUGUAGAAGGGAUCUACA [Ex2 Design 136: Not so Super Stable 24]", "apparent KD of MS2 coat protein": 14.4}
{"sequence": "GGUUGGCGAGGAUAUACAUGAGGAUCACCCAUGUGAGAGAAAAAAGUGAGGAGGAGCAGUAGAAGGCGCUGACG [salish99-ex3-19]", "apparent KD of MS2 coat protein": 59.3}
{"sequence": "GUGUACAGAGGAUAUAUAUGAGCUAGGAAACUAGCAACUUCACAUGAGGAUCACCCAUGUAGAAGGCUGUACAC [Ex2: 720]", "apparent KD of MS2 coat protein": 14.1}
{"sequence": "GAAAAGUGAGGAUAUACUUUGGGAAAAGAAAAGAUGAUGUUACAUGAGGAUCACCCAUGUAGAAGGCACAAAAA [Mat - Exclusion 2 - Mod - D155]", "apparent KD of MS2 coat protein": 25.2}
{"sequence": "CUCUUGUCAGGAUAUAGAAGAAAAGAAAAGAAAGAAAAGAACUAGAAGGGACAUGAGGAUCACCCAUGUAAGAA [EteRNA is fun!]", "apparent KD of MS2 coat protein": 87.5}
{"sequence": "AAAAAGAGAGGAUAUACAUGAGGAUCACCCAUGUGACACAAAAUAAAUAAAAUAAAGUGUAGAAGGCUCAAAAA [65%, Moding Exclusion3-cac2, 20]", "apparent KD of MS2 coat protein": 23.8}
{"sequence": "AAAAAACAUGAGGAUCACCCAUGUCAGGAUAUCCGAAAAAAAAAAAAAAAAAAACCUUGGAGAAGGGACAUUCC [Chica Displaced 6 - Jieux - Exclusion 1]", "apparent KD of MS2 coat protein": 37.2}
{"sequence": "AACAUGUAAGGAUAUCCAAGAAAAGAAAAGAAAGAAAAGAAGGAGAAGGUACAUGAGGAUCACCCAUGUAAGAA [EteRNA is fun!]", "apparent KD of MS2 coat protein": 21.6}
{"sequence": "GGAUGGGAAGGAUAUACAUGAGGAUCACCCAUGUGAGAGAAAAAAGUGAGAAAGAAAAGUAGAAGGUCUUGUCG [salish99-ex3-85]", "apparent KD of MS2 coat protein": 82.5}
{"sequence": "AAAGGACAUGAGGAUCACCCAUGUGAGGAUAUGACGUAAAGAAAGAAAGAAGAAAUCGUCAGAAGGCACACCUA [Mat - Exclusion 1 - Eli mod - D69]", "apparent KD of MS2 coat protein": 35.4}
{"sequence": "AGAAAGUCAGGAUAUGCAGAAAAAAAAACGAAAAAAAAACUGCAGAAGGGACAUGAGGAUCACCCAUGUUAAAG [Mat - Exclusion 4 - Mayanna - D129]", "apparent KD of MS2 coat protein": 46.6}
{"sequence": "AAAAAGGCAGGAUAUGCAUACUCACGGAAAAAAAGGUUGGGACAUGAGGAUCACCCAUGUAGAAGGGCCAAAAA [Dora Explored 14 - Jieux - Exclusion 2]", "apparent KD of MS2 coat protein": 29.6}
{"sequence": "AGUUAGCGAGGAUAUACAUGAGGAUCACCCAUGUGAGAGAAAAAAGUGAGAAAUAAAAGUAGAAGGCGCUAACA [Mat - Exclusion 3 - Eli mod - D69]", "apparent KD of MS2 coat protein": 38.9}
{"sequence": "AAAACGGCAGGAUAUACAAUUGAGAACUAGAUCGAAAAAAAACAUGAGGAUCACCCAUGUAGAAGGGCCAAAAA [Ex2 Malc#9]", "apparent KD of MS2 coat protein": 34.7}
{"sequence": "AAAAAACAUGAGGAUCACCCAUGUGAGGAUAUGAUGCGAAUAAAGAAAGAAUAAAGCAUCAGAAGGCACAAAAA [Mat - Exclusion 1 - Eli mod - D62]", "apparent KD of MS2 coat protein": 36.4}
{"sequence": "AUAAAACAUGAGGAUCACCCAUGUGAGGAUAUCUAAAAAGAAAGAAAAAAAAAAAAAAAGAGAAGGCACAAUAA [Amethyst 45]", "apparent KD of MS2 coat protein": 27.7}
{"sequence": "AAACCACAUGAGGAUCACCCAUGUCAGGAUAUGAACGAAAUAAAAUAAAAAUAAAAGUUCAGAAGGGACAAAAA [Mat - Exclusion 1 - Eli mod - D16]", "apparent KD of MS2 coat protein": 37.4}
{"sequence": "AAAAAACAUGAGGAUCACCCAUGUAAGGAUAUGCAAAAAAAAAAAAUAAAAAAAAAAAGCAGAAGGUACAUAGA [Starry Exclusion 1.7 (wbt round 1 mod)]", "apparent KD of MS2 coat protein": 36.6}
{"sequence": "AAAAAUGGAGGAUAUACAUGAGGAUCACCCAUGUGUAACUAUACUAAGCACAAACCAAGUAGAAGGCCAAAAAA [Gilly Gone Silly 10 - Jieux - Exclusion 3]", "apparent KD of MS2 coat protein": 45.4}
{"sequence": "GAAAACUGAGGAUAUACUUUGGGAAAAGAAAAGAUGAUGUUACAUGAGGAUCACCCAUGUAGAAGGCAGAAAAA [Default title]", "apparent KD of MS2 coat protein": 26.4}
{"sequence": "AAAAAGUGAGGAUAUACAGAUAAAAAAACGAAAAAAAAUCUGUAGAAGGCACAUGAGGAUCACCCAUGUAAAAA [Ex 4 May 3]", "apparent KD of MS2 coat protein": 43.4}
{"sequence": "GAGAGACAUGAGGAUCACCCAUGUGAGGAUAUCGGGAGGAGGAGGAGGAGGAGGAGGACGAGAAGGCACGGAAG [salish99-Ex1-06]", "apparent KD of MS2 coat protein": 21.6}
{"sequence": "AGUCAUACAGGAUAUACAUGAGGAUCACCCAUGUUUAUCCUAAAAUAAAAAAACUCAUGUAGAAGGGUAUGACA [EX3 214: Super Stable 14]", "apparent KD of MS2 coat protein": 13}
{"sequence": "AAAAAGUGAGGAUAUACAUGAGGAUCACCCAUGUGUAUAAAAAAUUACACAAAAGAAAGUAGAAGGCACUAAAA [Ex 3 Summer]", "apparent KD of MS2 coat protein": 20.3}
{"sequence": "ACAGUUACAGGAUAUACAUGGAAAAAUAAAAAUAAAAAACUACAUGAGGAUCACCCAUGUAGAAGGGUAACUGA [Ex2 Design 197: Random 12F]", "apparent KD of MS2 coat protein": 42.9}
{"sequence": "AAAAAGAGAGGAUAUGCAGGAGGUAAGGUCGAAAAAAAAAAACAUGAGGAUCACCCAUGUAGAAGGUUUAAAAA [Ecls2-VII]", "apparent KD of MS2 coat protein": 23.6}
{"sequence": "AGAUAGUCAGGAUAUACGAACAAGAAAAAAGACGAGAACGGACAUGAGGAUCACCCAUGUAGAAGGGACUAGCA [Diamond 10]", "apparent KD of MS2 coat protein": 35.6}
{"sequence": "AAGAAACGAGGAUAUACAAGAAAGAAAGAAAAGAAAAGAAAACAUGAGGAUCACCCAUGUAGAAGGCGUUAGAA [EteRNA is fun!]", "apparent KD of MS2 coat protein": 22}
{"sequence": "AAAAAACAUGAGGAUCACCCAUGUGAGGAUAUGCAAUAAAAAAUAAAAAUAAAACAUAGCAGAAGGCACACCAA [Amethyst 58]", "apparent KD of MS2 coat protein": 26.6}
{"sequence": "AGAAUACAUGAGGAUCACCCAUGUGAGGAUAUGCAAAUAAAAAUAAAAUAAAAUAAAUGCAGAAGGCACGAAAG [EX 1 May 22]", "apparent KD of MS2 coat protein": 35.9}
{"sequence": "AGGAAACAUGAGGAUCACCCAUGUCAGGAUAUUGGAAAGAAAAGAAAAGAAAGAAGAAUAAGAAGGGACAAGAA [Hor-Aha]", "apparent KD of MS2 coat protein": 38.7}
{"sequence": "AAGAACCAAGGAUAUACAUGAAAGAAAGAAAAGAAAAGAAAACAUGAGGAUCACCCAUGUAGAAGGUGGUAGAA [EteRNA is fun!]", "apparent KD of MS2 coat protein": 70.2}
{"sequence": "AAAAACGGAGGAUAUACAUGAGGAUCACCCAUGUAAAAAAAAAAAAAGGGAAAAAAAAGUAGAAGGCCGAAAAA [Sekhemrekhutawy Pantjeny]", "apparent KD of MS2 coat protein": 39.1}
{"sequence": "AGCUAGUCAGGAUAUACGAACACGUCAAAAGACGUGAAGGGACAUGAGGAUCACCCAUGUAGAAGGGACUAGCA [Mat - Exclusion 2 - JL mod - D24]", "apparent KD of MS2 coat protein": 29.8}
{"sequence": "GGAAAACAUGAGGAUCACCCAUGUGAGGAUAUUGAAACAAACAAAACAAACAAACAAACAAGAAGGCACAGGAA [Exclusion one redone]", "apparent KD of MS2 coat protein": 20.7}
{"sequence": "UGCAGGUGAGGAUAUGCGGGCGAUUAAACAUAUAAAUGCAAGCAGAAGGCACAUGAGGAUCACCCAUGUAGUCC [Ex4Try2_Neo]", "apparent KD of MS2 coat protein": 30.8}
{"sequence": "AGUUGGCGAGGAUAUACAUGAGGAUCACCCAUGUGAGAGUAAAGAGUGAGAAAGAGAAGUAGAAGGCGCUGACA [Ruby 56]", "apparent KD of MS2 coat protein": 81.1}
{"sequence": "CAAAACAGAGGAUAUACAUGAGGAUCACCCAUGUAAAAAUGUAGAAGGCUGAAACAAACAAGAAGGAAACAAAA [Meechl Ex3 R2 m3]", "apparent KD of MS2 coat protein": 23.7}
